In patent US7285395B2, “Stearoyl-CoA desaturase 4 gene” (Wisconsin Alumni Research Foundation, priority 2004, dated 2007):

Test system: ob/ob mice
Assay: monounsaturated fatty acid content of hearts of leptin-treated ob/ob mice by GLC
Assay type: in vivo, mouse
Conditions: leptin treatment, GLC of total fatty acids
Method: A, SCD activity: Microsomes were prepared from hearts of PBS-treated, ob/ob, ob/ob pair-fed (PF), and leptin-treated (ob/ob-Leptin) mice, and SCD enzyme activity was determined by measuring the incorporation of radioactivity in oleoyl-CoA using [1-^14C]stearoyl-CoA as a substrate. The reaction products were separated by TLC, and the radioactivity was quantitated. Each value represents the mean±S.E. (n=4). B, Levels of monounsaturated fatty acids in the hearts of ob/ob mice: Total fatty acids were extracted from heart of ob/ob mice treated with either leptin or PBS and wild type controls quantitated by GLC as described in the example below. *, p<0.05 versus wt-PBS; #,p<0.05 versus ob/ob-PBS. C, Total RNA was prepared from hearts of PBS or leptin-treated ob/ob mice and used to measure SCD1, SCD2, and SCD4 mRNA levels by quantitative RT-PCR analysis. The fold change relative to that of wild type was calculated after correction for the levels of cyclophilin used as a standard. […]
Subcutaneous Leptin Treatment—ob/ob mice were individually caged and allowed to acclimate for a number of days prior to the start of the experiment. […] Body mass and food intake were measured daily. […]
ob/ob mice have a mutation in the leptin gene and are a model of obesity, insulin resistance, and diabetes. […] To determine which SCD isoform(s) accounted for these effects, we measured RNA levels of mSCD1, mSCD2, and mSCD4. […]

B1: leptin: recombinant mouse leptin (Amgen, Thousand Oaks, Calif.) (protein, UniProt P41160 22-167, looked up)
Leptin: VPIQKVQDDTKTLIKTIVTRINDISHTQSVSAKQRVTGLDFIPGLHPILSLSKMDQTLAVYQQVLTSLPSQNVLQIANDLENLRDLLHLLAFSKSCSLPQTSGLQKPESLDGVLEASLYSTEVVALSRLQGSLQDILQQLDVSPEC
For B1, the “18:1 content of heart” value was “reduced to levels comparable with those in wild type mice”.
